Here are results for 13 molecules from paper PMC10598736, “Structural insights into Rad18 targeting by the SLF1 BRCT domains” (The Journal of Biological Chemistry, 2023).

Square brackets hold non-standard residues; d marks the D form. Ends that are not written are not given here. Peptide text beside a SMILES is read from it. pS = N[C@@H](COP(=O)(O)O)C(=O)O

For test [1], the target named is SLF1 tandem BRCT repeat (SLF1^tBRCT), residues 1-199, wild type (UniProt Q9BQI6). In words: ITC; MicroCal ITC 200, 25 °C, 20 mM Tris (pH 7.5), 200 mM sodium chloride; 1.3 mM Rad18 peptide or 6 mM BRCTide injected into 0.1 mM (Rad18 peptides) or 0.2 mM (BRCTide) SLF1^tBRCT in the cell; three independent repeats. (Isothermal titration calorimetry measures the heat released or taken up as one component is titrated into another.)

The target of test [2] is T1, SLF1^tBRCT (residues 1–199), WT (Homo sapiens, UniProt Q9BQI6).
T1 construct: The coding region for SLF1^tBRCT (residues 1–199) was optimized for expression in E. coli; made in house; host or cells: E. coli BL21 Rosetta (DE3)
T1 sequence (Q9BQI6 1-199): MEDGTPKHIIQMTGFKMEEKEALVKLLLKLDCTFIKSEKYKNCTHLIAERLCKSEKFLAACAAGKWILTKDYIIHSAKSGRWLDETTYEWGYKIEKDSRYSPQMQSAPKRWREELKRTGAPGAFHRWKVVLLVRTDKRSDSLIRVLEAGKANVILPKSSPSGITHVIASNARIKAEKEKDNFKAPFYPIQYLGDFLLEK
The test can be described thus: ITC of peptide binding to wild-type SLF1 tBRCT. Particulars: 25 °C, 20 mM Tris pH 7.5, 200 mM NaCl; for Kd: 1.3 mM Rad18 peptide into 0.1 mM protein (BRCTide 6 mM into 0.2 mM), average ± SD of three independent repeats, ND = not detected. How it is done: ITC experiments were carried out on a MicroCal ITC 200 instrument (Malvern) at 25 °C. Prior to the ITC experiments, SLF1^tBRCT was exchanged into a buffer containing 20 mM Tris (pH 7.5) and 200 mM sodium chloride and peptides (Sangon Biotech, Scilight biotechnology, Hefei Scierbio-Tech, Synpeptide) were dissolved in the same buffer. To characterize binding, a solution containing 1.3 mM Rad18 peptide or 6 mM BRCTide was injected into a 300-μl cell that stores 0.1 mM (for binding experiments with Rad18 peptides) or 0.2 mM (for the binding experiment with BRCTide) SLF1^tBRCT, 2 μl at a time. Data were analyzed with ORIGIN 7.0 (Originlab).

Test [3] addresses T2, SLF1 tandem BRCT repeat (SLF1^tBRCT), residues 1-199, wild type (UniProt Q9BQI6 1-199).
T2 construct: SMC5/6 localization factor 1 (SLF1), tandem BRCT repeat at the N-terminus, residues 1-199; coding region optimized for E. coli and synthesized; also called WT; SMC5/6 localization factor 1 tBRCT; source: E. coli BL21 Rosetta (DE3), purified (Ni-NTA, heparin, gel filtration)
T2 sequence (looked up): T1 sequence (Q9BQI6 1-199)
In words: ITC; MicroCal ITC 200, 25 °C, 20 mM Tris (pH 7.5), 200 mM sodium chloride; 1.3 mM Rad18 peptide or 6 mM BRCTide injected into 0.1 mM (Rad18 peptides) or 0.2 mM (BRCTide) SLF1^tBRCT in the cell; three independent repeats. Particulars: both partners purified.

Usually stoichiometry N stands for a count of units in the complex or per binding partner. Consider “Rad18-pS444 peptide (from UniProt Q9NS91 436-452)”, for which, in test [1], the dH is -1.1 kcal/mol and the stoichiometry N was 1.28. Usually Kd stands for the concentration at which binding is half-saturated. Regarding `CC[C@H](C)[C@H](NC(=O)[C@H](CC(=O)O)NC(=O)[C@H](COP(=O)(O)O)NC(=O)[C@H](CO)NC(=O)[C@H](COP(=O)(O)O)NC(=O)[C@H](CO)NC(=O)[C@H](CC(N)=O)NC(=O)[C@H](CS)NC(=O)[C@H](CO)NC(=O)[C@H](CC(=O)O)NC(=O)[C@@H](N)CO)C(=O)N[C@H](C(=O)N[C@@H](CCCNC(=N)N)C(=O)N[C@@H](CC(=O)O)C(=O)N[C@@H](CC(C)C)C(=O)N[C@@H](CC(C)C)C(=O)N[C@@H](CCC(=O)O)C(=O)O)[C@@H](C)CC` [Rad18-2P] (H-SDSCNS[pS]S[pS]DIIRDLLE-OH), the Kd in test [2] came out at 15 ± 3 nM. As for “Rad18-NP: unphosphorylated Rad18 peptide of the Ser442/Ser444-containing region (SDSCNSSSSDIIRDLLE)”, the “binding to SLF1^tBRCT by ITC (in words)” value in test [2] is “undetectable”. “singularly phosphorylated Rad18-pS442 peptide (from UniProt Q9NS91 436-452)”: in test [1], the dH is -1.79 kcal/mol and the stoichiometry N came out at 1.13.

With “Rad18-pS442-2IA: Rad18-pS442 peptide with I446A/I447A substitution (SDSCNS[pS]SSDAARDLLE)”, the “binding to SLF1^tBRCT by ITC (in words)” value in test [2] was “undetectable”. Turning to `CC[C@H](C)[C@H](NC(=O)[C@H](CC(=O)O)NC(=O)[C@H](CO)NC(=O)[C@H](CO)NC(=O)[C@H](COP(=O)(O)O)NC(=O)[C@H](CO)NC(=O)[C@H](CC(N)=O)NC(=O)[C@H](CS)NC(=O)[C@H](CO)NC(=O)[C@H](CC(=O)O)NC(=O)[C@@H](N)CO)C(=O)N[C@H](C(=O)N[C@@H](CCCNC(=N)N)C(=O)N[C@@H](CC(=O)O)C(=O)N[C@@H](CC(C)C)C(=O)N[C@@H](CC(C)C)C(=O)N[C@@H](CCC(=O)O)C(=O)O)[C@@H](C)CC` [Rad18-pS442] (H-SDSCNS[pS]SSDIIRDLLE-OH), in test [2], the affinity, expressed as Kd, was 156 ± 5 nM. The same measure, in the same setting: then `CC[C@H](C)[C@H](NC(=O)[C@H](CC(=O)O)NC(=O)[C@H](COP(=O)(O)O)NC(=O)[C@H](CO)NC(=O)[C@H](CO)NC(=O)[C@H](CO)NC(=O)[C@H](CC(N)=O)NC(=O)[C@H](CS)NC(=O)[C@H](CO)NC(=O)[C@H](CC(=O)O)NC(=O)[C@@H](N)CO)C(=O)N[C@H](C(=O)N[C@@H](CCCNC(=N)N)C(=O)N[C@@H](CC(=O)O)C(=O)N[C@@H](CC(C)C)C(=O)N[C@@H](CC(C)C)C(=O)N[C@@H](CCC(=O)O)C(=O)O)[C@@H](C)CC` [Rad18-pS444] (H-SDSCNSSS[pS]DIIRDLLE-OH), with 19700 ± 6460 nM. For the molecule “Rad18-pS442-4A: Rad18-pS442 peptide with I446A/I447A/L450A/L451A substitutions (SDSCNS[pS]SSDAARDAAE)”, in test [2], the “binding to SLF1^tBRCT by ITC (in words)” value is recorded as “undetectable”.

B1: Rad18-2P-R448A peptide (peptide, UniProt Q9NS91 436-452, looked up)
peptide: SDSCNS[pS]S[pS]DIIADLLE
notes: Rad18, human, residues 436-452, with R448A; source: synthetic peptide
For B1, in test [3], the Kd turned out to be 38 nM, the dH was -2.15 kcal/mol and the “stoichiometry N” value is 1.63.

B2: Rad18-pS442-2LA peptide (L450A/L451A) (peptide, UniProt Q9NS91 436-452, looked up)
peptide: SDSCNS[pS]SSDIIRDAAE
notes: Rad18, human, residues 436-452, with L450A/L451A; source: synthetic peptide
On to B2, for which, in test [3], binding was put at a Kd of 450 nM, the dH was -2.39 kcal/mol and the “stoichiometry N” value came out at 1.67.

B3: Rad18-2P-N440A peptide (peptide, UniProt Q9NS91 436-452, looked up)
peptide: SDSCAS[pS]S[pS]DIIRDLLE
notes: Rad18, human, residues 436-452, with N440A; source: synthetic peptide
Turning to B3, in test [3], the Kd stood at 44 nM, the dH was -2.54 kcal/mol and the “stoichiometry N” value is 1.76.

Take GAAYDI[pS]QVFPFAKKK (source: synthetic peptide) [BRCTide, phosphopeptide optimized for binding to the BRCA1 tBRCT]: in test [3], binding was put at a Kd of 27500 nM, the dH is -0.75 kcal/mol and the “stoichiometry N” value worked out at 1.12.

B4: Rad18-2P-D449A peptide (peptide, UniProt Q9NS91 436-452, looked up)
peptide: SDSCNS[pS]S[pS]DIIRALLE
notes: Rad18, human, residues 436-452, with D449A; source: synthetic peptide
Consider B4, for which, in test [3], the Kd is 77 nM, the dH was -1.11 kcal/mol and the “stoichiometry N” value stood at 1.52.
